According to paper PMC10928148:
pEC50: −log10 of the molar value.

Target: Delta variant S protein on plant-produced virus-like particles (SARS-CoV-2 (Delta variant)) (UniProt P0DTC2)
Experiment: ELISA

In order of falling pEC50:
1. COVA2-15 secretory IgA1 (from UniProt P01591 23-159; P01833 19-603) (antibody)  10.05
2. COVA2-15 IgG (antibody)  8.05

Target: Delta variant S protein on plant-produced virus-like particles (SARS-CoV-2 (Delta variant)) (UniProt P0DTC2)
Experiment: ELISA
Remark: another data set of the same source

In order of rising pEC50:
1. COVA2-15 IgG (antibody)  8.04
2. COVA2-15 monomeric IgA2 (antibody)  8.69
3. COVA2-15 monomeric IgA1 (antibody)  8.71
4. COVA2-15 secretory IgA2 (from UniProt P01591 23-159; P01833 19-764) (antibody)  9.27
5. COVA2-15 secretory IgA1 (from UniProt P01591 23-159; P01833 19-764) (antibody)  10.07
